Patent US20230095569A1 (ANTENGENE BIOLOGICS, published 2023)

What was measured:
[1] = target: T1, human Claudin18.2 (CLDN18.2) (human, UniProt P56856 1-261); test: cell-based or functional assay
[2] = target: T1, human Claudin18.2 (CLDN18.2); test: cell-based or functional assay; remark: listed apart in the source
[3] = target: T1, human Claudin18.2 (CLDN18.2); test: cell-based or functional assay; remark: listed apart in the source
[4] = target: T1, human Claudin18.2 (CLDN18.2); test: FACS on CHOK1-18.2 cells
[5] = target: T1, human Claudin18.2 (CLDN18.2); test: FACS on GAXC031 cells, antibody at 50 µg/ml
[6] = target: T1, human Claudin18.2 (CLDN18.2); test: FACS on CHOK1-18.2 cells, antibody at 50 µg/ml
[7] = target: T1, human Claudin18.2 (CLDN18.2); test: FACS on GAXC031 cells

Binder | ADCC EC50 [1] | Max tumor cell killing (% of control), ADCC [1] | CDC EC50 [2] | Max CDC induced tumor cell killing (% of control) [2] | IC50 of indirect ADC cytotoxicity [3] | Max inhibition % [3] | EC50 [4] | MAX MFI [5] | MAX MFI [6] | EC50 [7]
chAb25 (antibody, V domains shown) VH: EAQLQQSGPELVKPGASVKIFCKASGYTFTDYYINWVKQSHGKSLEWIGDINPNNGGTTYNQKFKGKATLTVDKSSSTASMELRRLTSEDSSVYYCARRDAMDYWGQGTSVTVSS VL: DIVMTQSQKFMSTTVGDRVSITCTASQNVGPAVAWYQQKPGQSPKLLIYSASRRFTGVPDRFTGSGSGTVFTLTINNVQSEDLADYFCQQYISYPLTFGAGTKLELK | 8.38 nM | 76.8 % of control | 25.4 nM | 72.9 % of control | 0.86 nM | 92.9% | 8.27 nM | 3020 | 56100 | 
chAb05 (antibody, V domains shown) VH: DVKLVESGEDLVKPGGSLKLSCAASGFTFSNYAMSWVRQTPEKRLEWVAYVSSGGDYIYYADTVKGRFIISRDNARNTLYLQMNSLRSEDTAMYYCARVYFGNSLDYWGQGTTLTVSS VL: DIVMTQSPSSLTVTAGEKVTLSCKSSQSLLNGGNQKNYLTWYQQRPGQPPKLLIYWASTRESGVPDRFTGSGSGTDFTLIISSVQAEDLAVYYCQNDYYYPWTFGGGTKLEIK | 5.92 nM | 57.9 % of control | 17.8 nM | 78.9 % of control | 0.99 nM | 92.3% | 5 nM | 4600 | 83900 | 73.8 nM
chAb29 (antibody, V domains shown) VH: EVLLQQSGPELVKPGASVKIPCKASGYTLTDHSMDWVKQSHGKSLEWIGNILPNNGGNIYNQKFRGKATLTVDKSSSTAYMELRSLTSEDTAVYNCARGHYGNSFAYWGQGTLVIVS VL: DIVMTQSPSSLTVRAGEKVTIYCKSSQSLFNSGNQKNYLTWYQQKPGQPPKLLIYWASTRESGVPHRFTGSGSGTDFTLTISSMQADDLATYYCQNGYFFPYTFGGGTKLEIK | 5.27 nM | 60.9 % of control | 12.7 nM | 67.8 % of control | 0.91 nM | 93.5% | 6.63 nM | 5640 | 63400 | 
chAb31 (antibody, V domains shown) VH: QIQLAQSGPELKKPGETVKISCKASGYSFTNYGMNWVKQAPGKGLKWMGWINTYSGETKYADDFKGRFDFSLETSARTAYLQIKNLKIEDTATYFCARRDAMDYWGQGTSVTVSS VL: DIVMTQAAPSVPVTPGESVSISCRSSKSLLNSNGNTYLYWFLQRPGQSPQLLIYRMSNLASGVPDRFSGSGSGTAFTLRISRVEAEDVGVYYCMQHLEFPFTFGSGTKLEIK | 8.16 nM | 78.8 % of control | 37.9 nM | 60.7 % of control | 2.35 nM | 91.7% | 5.17 nM | 3770 | 59900 | 
chAb18 (antibody, V domains shown) VH: QVQLKESGPGLVAPSQSLSITCTVSGFSLTTYGINWVRQPPGKGLEWLGVIWGDGSTNYHSALISRLSISKDNSKSQVFLKLNSLQTDDTATYYCVKSSYYGNAMDYWGQGTSVTVSS VL: DIVMTQSPSSLTVTAGETVTMSCKSSQSLLNSGNQKNYLTWYQQKPGQPPKLLIYWASTRESGVPDRFTGSGSGTDFTLTISSVQAEDLAVYYCQNVYSYPFTFGSGTKLEI | 5.07 nM | 61.5 % of control | 35 nM | 75.3 % of control | 1.58 nM | 90.7% | 7.71 nM | 3690 | 60200 | 
chAb17 (antibody, V domains shown) VH: QVQLKESGPGLVAPSQSLSITCTVSGFSLTSYAISWVRQPPGKGLEWLGEIWTGGGTNYNSALKSRLSISKDNSKSQVFLKMNSLQTDDTARYYCGRLSYGNSLDYWGQGTTLTVSS VL: DIVMTQSPSSLTVTAGEKVTMSCKSSQSLLNSGNQKNYLTWYQQKPGQPPKLLIYWASTRESGVPDRFTGSGSGTDFTLTVSSVQAEDLAVYYCQNNFIYPLTFGPGTKLELK | 2.46 nM | 60.6 % of control | 9.93 nM | 70.8 % of control | 0.88 nM | 92.4% | 4.74 nM | 4230 | 83800 | 94.2 nM
chAb08 (antibody, V domains shown) VH: QVQLQQPGAELVKPGASVKLSCKASGYTFTSYLLHWVKQRPGQGLEWIGMIHPNGGSTNYNEKFKTKATLTVDKSSSTAYMQLSSLTSEDSAVYYCAPVYFGNSFAYWGQGTLVTVSA VL: DIVMTQSPSSLTVTAGEKVTMSCKSSQSLLNSGNQKNYLTWYQQKPGQPPKLLIYWASTRESGVPDRFTGSGSGTDFTLTISSVQAEDLAVYYCQNDYYYPFTFGSGTKLEKK | 2.22 nM | 69.3 % of control | 13.6 nM | 68.4 % of control | 0.45 nM | 92.5% | 3.6 nM | 5830 | 71900 | 
chAb06 (antibody, V domains shown) VH: EVQLVASGGGLVKPGGSLKLSCAASGITFRSYAMSWVRQTPEKRLEWVATITDGGSYIFYPDNVKGRFTISGDHAKNNLYLQMSHLKSEDTALYFCVRLYYGNSFAYWGQGTLVTVSA VL: DIVMTQSPSSLTVTAGEKVTLNCKSSQSLFNSGNQKNYLTWYQQKPGQPPKLLIYWASTRESGVPDRFTGSGSGTDFTLTFSSVQAEDLAVYYCQNAYIYPFTFGSGTKLEIK | 3.01 nM | 40.6 % of control | 9.72 nM | 75.4 % of control | 0.61 nM | 91.8% | 5.42 nM | 5460 | 92800 | 
IMAB362 (Zolbetuximab) (antibody, V domains shown) VH: QVQLQQPGAELVRPGASVKLSCKASGYTFTSYWINWVKQRPGQGLEWIGNIYPSDSYTNYNQKFKDKATLTVDKSSSTAYMQLSSPTSEDSAVYYCTRSWRGNSFDYWGQGTTLTVSS VL: DIVMTQSPSSLTVTAGEKVTMSCKSSQSLLNSGNQKNYLTWYQQKPGQPPKLLIYWASTRESGVPDRFTGSGSGTDFTLTISSVQAEDLAVYYCQNDYSYPFTFGSGTKLEIKR | 36.1 nM | 30.7 % of control | 809 nM | 52.5 % of control | 4.75 nM | 81.8% | 5.69 nM | 742 | 49600 | 36.1 nM
chAb30 (antibody, V domains shown) VH: QVQLKESGPGLVAPSQSLSITCTVSGFSLTKFGVNWVRQPPGKGLEWLGAIWGDGSTNYHSALISRLSINKDNSKSQVFLKLSSLQNVDTATYYCAKSGYGNAMDYWGHGTSVTVSS VL: DIVMTQSPSSLTVTTGEKVTLNCKSSQSLLNSGNLKNYLTWYQQRPGQPPKLLIYWASTRESGVPYRFTGSGSGTDFTLTISNVQAEDLAIYYCQNDYFFPFTFGSGTKLEIK | 7.44 nM | 80.2 % of control | 23.2 nM | 76.1 % of control | 1.58 nM | 92.4% | 9.76 nM | 4460 | 65000 | 
chAb04 (antibody, V domains shown) VH: EVQLQQSGPELVKPGASVKMSCMASGYTFTDYNIHWVKRSHGSRLEWIGYISPISGGAGYNQKFMDKATLTVDKSSNTAYMELRSLTSEDSAVYYCTRGDYWGQGTTLTVSS VL: DIVMTQSPSSLAVTVGEKVTMSCKSSQSLLNSGNQKNYLTWYQQKPGQPPKLLIYWASTRKSGVPDRFTGSGSGTDFTLTISSVQAEDLGIYYCLNDYGFPLTFGAGSKLELK |  |  |  |  |  |  | 2.14 nM | 3860 | 75300 | 
chAb24 (antibody, V domains shown) VH: EVKLVESGGGLVKPGGSLKLSCAGSGFTFSSYTMSWVRQTPEKRLEWVATITIGVNIYYLDSVKGRFTISRDNAKNTLYLQMNSLRSEDTALYYCTRLGQTQRNAMDYWGQGTSVTVSS VL: DIVMTQSPTSLSVSAGEKVTMTCKSSQSLFNSGNQKNYLAWYQEKPGQPPKLLIYGASTRESGVPDRFTGSGSGTDFTLTISSVQAEDLAVYYCQNVHFYPFTFGAGTKLEL | 4.46 nM | 66.6 % of control | 12.8 nM | 70.7 % of control | 0.85 nM | 92.7% | 4.99 nM | 5860 | 64500 | 
chAb11 (antibody, V domains shown) VH: EVMLVESGGDLVKPGGSLKLSCAASGFTFSRYTMSWVRQTPEKRLEWVATVSVGSGNTYYLDSVKGRFTISRDNAKNTLFLQMNSLRSEDTALYYCTRLGQTQRNAVDYWGQGTSVTVSS VL: DIVMTQSPSFLSVSAGEKVTMSCKSSQSLFNGGNQKNYLAWYQQKPGQPPKLLIYGASTRDSGVPDRFTGSGSGTDFTLTISNVQAEDLAIYFCQNDHSFPLTFGAGTKLELK | 3.7 nM | 54.7 % of control | 19.4 nM | 71.2 % of control | 0.87 nM | 93.5% | 3.63 nM | 6420 | 85600 | 
